The source of these data is the PETadex activity labels.

Substrate in this series: BHET
Conditions: 120 h.

B1: unnamed (protein)
chain: MRTAKDFARGNPLARLCILLALAVFPALSHAQTVIFQEPFNVGIGSFTADGTVNGGGTGASMHGRIQGYSTITSPAINTTGFTNLQLAWTQMCLNSDAGEACQLWYSVNNITWDLVYSTPFAPFNSPASIALPAAAAGQSQLRLRFVRLANSFEEVYDVDNISLTGTAGGGGTTSGSTSGGTSGGGGTPCQNGPAPSATSVQGDGPFTVGTYVVPNPSGYKAGTIYYPTNTVSGACTKFAGIVTMPGYQGTQNNLSWLGPRLASNGFVVINVDTNTLSDSPDQRGAEILSALNQLVSLSNASGNPISGKVDSAKLGAMGHSMGGGGTLVAARNAMIKAAIPMAPYHNTTTNFPDVHAPTLVVTCQGDPSAPAATYGRPMYNSLTTEKAYLELTTTDGHLCVMTGYGNKAVQSRYMTSWMKRWLDGDTRYTQFLCGTTSGSNGVTTWADTCPY
With B1, the plate clearing entry is “not clears the plate”.

B2: unnamed (protein)
chain: MIRFKTGALTNTISLCLVVALGCGGGETPETSGPPPATQTNPTAQAGATATKPTGTAGAAAPTNTGRPMMTTPPTTTTPTMTTPATAGSAAPAAGSGGTPAATGAGGAPAAEAGSGAAGSAATAGSGAEDEAAAGKGGTEATGDKNHWIRGDDPPADLSGARPGPYKVERYTDGYRNGPAYADSTINYPVDAEPPFALVVVVPGFVSPQSSIASWGPFLASHGIVTMTIGTNLPTDLPETRKDALLDAMQSLKEENTREGSPLKGKLDTSYTATMGWSMGGGGTLLVANENPELKATISLCGWNPGYPYSKIKAPALMFASLGDPLAGGQSQGFYRSIPDETPKMLIEVGAGDHFVANNPASTSGVIGRYGLAWLKVYLEGDERYRKFLLEKPAVP
In the case of B2, the plate clearing entry is recorded as “not clears the plate”.

B3: unnamed (protein)
chain: MSSDKRLLFTLLHRTLLACALTFSAALPACGEEDPKEVTDSSSDDDDETPVDGDTTGDDDPEPMTMKDAGKSSVKDAGKPPPTPAVDAGSTAPKDKDSGTVGGIDAGPAKDAGTVVTPPTTAGDALVRGDAPTEKSASAKGPYAVKTYTSGYPDLPGYLDSTIHYPEGAQPPFAAVVIVPGFVSAQSSIQAWGPFFASHGIVTMTIGTNTPVDQPPMREAALLDALKTVKSENTREGSPLKDKLDLSRLAGMGWSMGGGGALLLGEHNPELKAVIALCPWNPGYSYAKIKMPTLFLAAQADTLAGGQSQGFYSSIPNSVPKILYEIAGADHWHNNDPANLQGAVGRYGLAWLKVFLEGDERYRDLLKVKGPSSSDWQSNVQ
Take B3: the plate clearing result is given as “not clears the plate”.

B4: unnamed (protein)
chain: MTTIIAKLAIAASAAVLATAAFAQQQGPEQTAAQLEAGKGPFTVATAKIATPSGYGGGTVYYPTNASGKVGLIVVAPGFTETQSAMNMWGPILASNGFAVINIDTKSTLDQPPARATQMMAALKQVSDLSKTTASPYYNKIDVTRQAVMGHSMGGGGTLVAATANPALKAAIPAAPWSLATKNFPTLAVPTMIFACQSDVIAPVSGHADRFWASFNKQLPSAFAEYAGAGHQCPTSQGGADRKLVFSKLGIAWFKRFVDGDTRYTQFITNDSRLSRFLTNGSF
For the protein B4, the plate clearing result was “not clears the plate”.

B5: unnamed (protein)
chain: MKTTISPIKGLAIAVAIAMATVAQPALSQTSPPTSASLNATSGPLSVSTASVLLPVGFGGGTIYYPTVAGQYGVIAISPGFTATQSSIAWLGRRIATHGFVVITMDTNTTLDQPDSRATQLMAALRYVLNSSGTAVRSRVDTTRLAVAGHSMGGGGSLIAARDNPTLKASYPMTPWNLSTNFSTVRVPTMIIGADGDTIAPVATHARPFYASLPSTTFKAYGELNNGTHFSPNATSTPIGRYAVAWMKRFVDGDARYSPFLCGAEHTSYATALVFERYNQNCPY
With B5, the plate clearing result is on record as “not clears the plate”.

B6: unnamed (protein)
chain: MNEVEPVNKSFLKKLSIGTGVLLVSMNALSWTPSPAPTPDPTPDPTPCQGDCDFTRGPNPTVSSVESSTGPYSVRTQSIASSVSGFGGGTIHYPTNTSGKMGAIAIAPGFLAPESSIIWWGPRLASHGFVVITIATNSVFDQPSSRGTQIGRALDYVISQSNASNSAISGMVDSTRVGAMGWSMGGGGALRLASGDRLSAAIPLAPWHQGGNSFNQLETPTLIIACENDNVAPVDRHASAFYNAIPSTTDKALLEIDGGAHSCANGDGSNDAVLGKYGISWMKRFIDNDLRYDQFLCGPNHAANSAVSEYRETCDY
With B6, the plate clearing entry is “not clears the plate”.

B7: unnamed (protein)
chain: MGGSMKLRSTAMRRRFVVLVAVVMLVVAACDWRGPAPTEQSLVAARGTFTVGTLAVPTSAGFGGGTIYYPGNHDGPFGVISISPGFLGNQSSIGEWGPRLASHGFVVITINTTNGFIQPPQRSTEQRQALSYVVAQGGVSSSPIFGIVDGARRGVAGHSMGGGASLISVQSDPSIKVAVPFAPWNSSANFSAVTSAVLIFACQNDSIAPVGSHASPMYNSIPASTDKSYVSVAGGDHFCANNPTGASGTAGKWALSYFKKFIDGDTRYDPWVCGASKPATGPVLNEVRSSCPF
For B7, the plate clearing entry is reported as “not clears the plate”.

B8: unnamed (protein)
chain: MKIDSIIKFLCTALLVTFSLGVYAGGGGGGDEPSNDGQLPAPDTCTSNCGYANGANPTLSSLQASQGQYSVGTVNVSSSVNGFGGGTIYYPTNLSGELAAIAIAPGFTNTQSAVQWWGPVLASRGFVVVTINTNGRFDFPSSRSRQLDSALNYLIYLGEQSSGAISGKVDKNRLATMGFSMGGGGALESASRNRLSATVPLAPWYSGSNPFNQINVPSMIMACENDGTAGVNTHASPFYNRIPGSTDKVYLELNNGSHNCATGQDSNYRTTISTYGVSWLKRFLDKDSRYNQFLCGPNHVANARISEFRDTCNF
For B8, the plate clearing result was “not clears the plate”.

B9: unnamed (protein)
chain: MTPTLCRPLAAVLTSAAFAALTAVSASALAQTPQEPTEASLNATAGPFSVATESVRAPRGFGGGTIYYPTAAGRYGVVAISPGFTATQSSIAWLGRRMASHGLVVITMNTNSTLDQPASRANQLMAALNHVVSASGAAVQSRADGTRRAVAGHSMGGGGALIAARDNATLRAALPLTPWNTTTDFSGVRVPTLIVGADGDGVASVTRHARPFYASLPNATAKAYGELNSASHFTPNSTNTPIGRYGVTWMKRFVDADTRYSPFLCGAAHLAYATPAVFDRYQNNCPY
As to B9, the plate clearing entry is “not clears the plate”.

B10: unnamed (protein)
chain: MTVCKLRMFTAQKHPVTNKIFGGSSMSSRKQDLRLRQLLYCLLLSTALGGAVVHAQTAPATIAQEAFNNGFGIFTAAGSATANGQAVLAGTFGGTDGSITSSPISTQGFSNITVSFDRTTVGLDNGEAGVAEFSVAGGAFTAIESAQTASGRMSFALAASAANQAQLRLRFRVVASRANETYSVDNVLVQGVAAGAQPPPPDPQPTNNPFQRGPTPSAATLEAAQGPFAVATTTVPNPSGFGAGTIYFPTSTTEGPFAAVSIAPGFSERQANVNWWGPRLASNGFVVVVIDTNSTSDAPASRATQLVAALRQVVTLSGTSGSPVFNKVDGNRLGVMGHSLGGGGTLIAAQNNPTLKAAIPFAPFNNDTNFSSVVVPTLIIACENDNVAPVADHASPFYNSFAASLDKAFLEIAGGSHSCANSGNNNMPILGKYGVSWMKLFMDNDTRYSPFLCGAPHQADLSGTQISEYRESCPY
B10: the plate clearing entry was “not clears the plate”.

B11: unnamed (protein)
chain: MTGSTTTGGRPAPPSPPSQSSTTCTTSAVASMPILTPSRVTSAHSVSSCSARNDAGGTCTALTPVVLWAVSAVTTAMPYPPAAATDFRSAWIPAPPPGSDPATDRTLGTCSGDETVGSVDGMGDIPSSVRTASGSTGVISAPGGRTPCREDTVAPVRETVSHRTRPCASPARLPMPRHGVRAEPVGAVIRQRGRTMQHSSIRSRAARRVTAALASLTVAVGLGAASGSVAQAADNPYERGPAPSESSIEATRGHYAVSERNVSRFVSGFGGGTIYYPTTTSDGTFGAVVVSPGYTGTESSIDWLGPRLASQGFVVLTMATNTIYDQPDSRARQLQAALDYLTGSSPVADRIDDDRLALMGHSMGGGGTLRAVDDNPDIKAAIPMTPWHTKKNWSTVTTPTLVFAAENDSVARHETHAEPFYNSFSDDLPKAYLELDGASHFAPNFSNTTIAKYSISWLKRFVDDDSR
Turning to B11, the plate clearing result is “not clears the plate”.

B12: unnamed (protein)
chain: MPGYQGTQQNLQWLAPRLASWGFVVINVGTTTLSDDPASRGRQISAAGTQLLALGNATGNPVSGKTDGTLGAVGHSMGGGGVMAALRDDARFRAGVPTAPYYPNMNFSQVTDPTFFLTCQSDPVAHGNTYAAPWYTSMTQAEKLYIEVPGDHLCPMTGSGDKAKQGKWIVSFLSLWLRADTRFSPFLCGPVRDADKNNTSLVTRWMDTCQF
As for B12, the plate clearing result is reported as “not clears the plate”.

B13: unnamed (protein)
chain: MEISNTRQLAVRSRARSRAETGGRKWTIGLGLLLLAAVAHAQTNPYAKGPDPTSSLLNATRGPFSITSTSVSRFVSGFGGGTIYYPTTSGSYAAIAISPGFTATQSSIAWLGQRIASHGFVAITINTNSVYDQPASRATQLMAALRYLTNSSTSAVRSRVDANRLGVAGHSMGGGGALIAARDNPSLKASVPLTAWSTSKNFSTVQVPTLVVGAENDSVAPVSSHSIPFYTSLSSFLEKAYAELNNASHFAPNSTNTPIGRYSVAWVKRFMDNDTRYSPFLCGAPHQSYATSTVFSEYRSTCPY
As to B13, the plate clearing entry is “not clears the plate”.

B14: unnamed (protein)
chain: MPKYPFYSQWIVAIGALVFSINASAVTLDEVAATNKLTIKEQSTKIVSTPIASAVAITSPVSTPAVPSNCIADSIITAANLSDTRDKGPFSVAKKAVPRQLANGFGGGTIYYPTNAGGCGLLGGIAVIPGYVSYESSIKWWGPRLASWGFVVITIDTNSIYDDPDSRAAQLSAALDHMLRDNTVGAQIDSTRLGAIGWSMGGGGALQLATKRQTVRAIIPQTPYHDKDYGEMNTPALFITCQNDRIASNKKYSSRFYDKATGAKMKIEIKNGSHFCPSYRFNEILLSKPGIAWMHRYINGDTRFDQFLCSNDNYGNNPRISAYDYKLS
For the protein B14, the plate clearing result is listed as “not clears the plate”.
